In patent US20090181003:

Key:
[1] = molecular target: recombinant S6K1 (highly purified)
[2] = molecular target: recombinant S6K2 (highly purified)
Chain of recombinant S6K2 (highly purified) (chain, as listed by the source): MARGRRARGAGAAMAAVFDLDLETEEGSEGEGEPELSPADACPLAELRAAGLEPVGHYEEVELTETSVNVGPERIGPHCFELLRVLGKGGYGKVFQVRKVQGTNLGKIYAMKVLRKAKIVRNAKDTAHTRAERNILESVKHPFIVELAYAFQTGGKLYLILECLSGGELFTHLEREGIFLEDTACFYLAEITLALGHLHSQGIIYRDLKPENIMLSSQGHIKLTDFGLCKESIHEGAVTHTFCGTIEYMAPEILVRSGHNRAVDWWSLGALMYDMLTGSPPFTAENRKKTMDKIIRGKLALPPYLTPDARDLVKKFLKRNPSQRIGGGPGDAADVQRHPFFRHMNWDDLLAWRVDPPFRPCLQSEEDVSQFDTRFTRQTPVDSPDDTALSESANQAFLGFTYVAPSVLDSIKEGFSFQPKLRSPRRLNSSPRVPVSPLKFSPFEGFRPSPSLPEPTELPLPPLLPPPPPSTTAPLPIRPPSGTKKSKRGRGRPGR

Chain of GST [GST: P08515] (P08515 whole entry): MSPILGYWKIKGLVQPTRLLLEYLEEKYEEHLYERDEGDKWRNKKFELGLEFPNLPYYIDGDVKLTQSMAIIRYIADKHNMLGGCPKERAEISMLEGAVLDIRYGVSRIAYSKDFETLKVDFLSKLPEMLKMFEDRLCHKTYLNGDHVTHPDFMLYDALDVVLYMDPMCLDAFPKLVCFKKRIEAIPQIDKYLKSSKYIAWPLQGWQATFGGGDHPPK

Row | Protein | in vitro acetylation (incorporation of 14C labelled acetyl groups, autoradiography) [1] | in vitro acetylation (incorporation of 14C labelled acetyl groups, autoradiography) [2] | in vitro acetylation (GST [GST: P08515])
1 | GST-P/CAF (protein) MSEAGGAGPGGCGAGAGAGAGPGALPPQPAALPPAPPQGSPCAAAAGGSGACGPATAVAAAGTAEGPGGGGSARIAVKKAQLRSAPRAKKLEKLGVYSACKAEESCKCNGWKNPNPSPTPPRADLQQIIVSLTESCRSCSHALAAHVSHLENVSEEEMNRLLGIVLDVEYLFTCVHKEEDADTKQVYFYLFKLLRKSILQRGKPVVEGSLEKKPPFEKPSIEQGVNNFVQYKFSHLPAKERQTIVELAKMFLNRINYWHLEAPSQRRLRSPNDDISGYKENYTRWLCYCNVPQFCDSLPRYETTQVFGRTLLRSVFTVMRRQLLEQARQEKDKLPLEKRTLILTHFPKFLSMLEEEVYSQNSPIWDQDFLSASSRTSQLGIQTVINPPPVAGTISYNSTSSSLEQPNAGSSSPACKASSGLEANPGEKRKMTDSHVLEEAKKPRVMGDIPMELINEVMSTITDPAAMLGPETNFLSAHSARDEAARLEERRGVIEFHVVGNSLNQKPNKKILMWLVGLQNVFSHQLPRMPKEYITRLVFDPKHKTLALIKDGRVIGGICFRMFPSQGFTEIVFCAVTSNEQVKGYGTHLMNHLKEYHIKHDILNFLTYADEYAIGYFKKQGFSKEIKIPKTKYVGYIKDYEGATLMGCELNPRIPYTEFSVIIKKQKEIIKKLIERKQAQIRKVYPGLSCFKDGVRQIPIESIPGIRETGWKPSGKEKSKEPRDPDQLYSTLKSILQQVKSHQSAWPFMEPVKRTEAPGYYEVIRFPMDLKTMSERLKNRYYVSKKLFMADLQRVFTNCKEYNPPESEYYKCANILEKFFFSKIKEAGLIDK | when S6K1 and S6K2 were incubated in the presence of GST-p300 HAT domain 4 or GST-P/CAF, ^14C labeled acetyl groups were indeed incorporated into the proteins | when S6K1 and S6K2 were incubated in the presence of GST-p300 HAT domain 4 or GST-P/CAF, ^14C labeled acetyl groups were indeed incorporated into the proteins | 
2 | GST-p300 HAT domain 4 (protein) KPKRLQEWYKKMLDKAVSERIVHDYKDIFKQATEDRLTSAKELPYFEGDFWPNVLEESIKELEQEEEERKREENTSNESTDVTKGDSKNAKKKNNKKTSKNKSSLSRGNKKKPGMPNVSNDLSQKLYATMEKHKEVFFVIRLIAGPAANSLPPIVDPDPLIPCDLMDGRDAFLTLARDKHLEFSSLRRAQWSTMCMLVELHTQSQDRFVYTCNECKHHVETRWHCTVCEDYDLCITCYNTKNHDHKMEKLGLGLDDESNNQQAAATQSPGDSRRLSIQRCIQSLVHACQCRNANCSLPSCQKMKRVVQHTKGCKRKTNGGCPICKQLIALCCYHAKHCQENKCPVPFCLNIKQKLRQQQLQHRLQQAQMLRRRMASMQRTGVVGQQQGLPSPTPATPTTPTGQQPTTPQTPQPTSQPQPTPPNSMPPYLPRTQA | when S6K1 and S6K2 were incubated in the presence of GST-p300 HAT domain 4 or GST-P/CAF, ^14C labeled acetyl groups were indeed incorporated into the proteins | when S6K1 and S6K2 were incubated in the presence of GST-p300 HAT domain 4 or GST-P/CAF, ^14C labeled acetyl groups were indeed incorporated into the proteins | no acetylation of GST is seen under these conditions
